# Laboratory results from IntAct's records for PubMed 15156152.
# B1: Integrin beta-5 (Homo sapiens), P18084 (parent)
# chain: MPRAPAPLYACLLGLCALLPRLAGLNICTSGSATSCEECLLIHPKCAWCSKEDFGSPRSITSRCDLRANLVKNGCGGEIESPASSFHVLRSLPLSSKGSGSAGWDVIQMTPQEIAVNLRPGDKTTFQLQVRQVEDYPVDLYYLMDLSLSMKDDLDNIRSLGTKLAEEMRKLTSNFRLGFGSFVDKDISPFSYTAPRYQTNPCIGYKLFPNCVPSFGFRHLLPLTDRVDSFNEEVRKQRVSRNRDAPEGGFDAVLQAAVCKEKIGWRKDALHLLVFTTDDVPHIALDGKLGGLVQPHDGQCHLNEANEYTASNQMDYPSLALLGEKLAENNINLIFAVTKNHYMLYKNFTALIPGTTVEILDGDSKNIIQLIINAYNSIRSKVELSVWDQPEDLNLFFTATCQDGVSYPGQRKCEGLKIGDTASFEVSLEARSCPSRHTEHVFALRPVGFRDSLEVGVTYNCTCGCSVGLEPNSARCNGSGTYVCGLCECSPGYLGTRCECQDGENQSVYQNLCREAEGKPLCSGRGDCSCNQCSCFESEFGKIYGPFCECDNFSCARNKGVLCSGHGECHCGECKCHAGYIGDNCNCSTDISTCRGRDGQICSERGHCLCGQCQCTEPGAFGEMCEKCPTCPDACSTKRDCVECLLLHSGKPDNQTCHSLCRDEVITWVDTIVKDDQEAVLCFYKTAKDCVMMFTYVELPSGKSNLTVLREPECGNTPNAMTILLAVVGSILLVGLALLAIWKLLVTIHDRREFAKFQSERSRARYEMASNPLYRKPISTHTVDFTFNKFNKSYNGTVD
# Variants of: B1
# Settings: with myo10_mouse Myo10, F8VQB6
# Sequence of myo10_mouse Myo10, F8VQB6 (F8VQB6 whole entry): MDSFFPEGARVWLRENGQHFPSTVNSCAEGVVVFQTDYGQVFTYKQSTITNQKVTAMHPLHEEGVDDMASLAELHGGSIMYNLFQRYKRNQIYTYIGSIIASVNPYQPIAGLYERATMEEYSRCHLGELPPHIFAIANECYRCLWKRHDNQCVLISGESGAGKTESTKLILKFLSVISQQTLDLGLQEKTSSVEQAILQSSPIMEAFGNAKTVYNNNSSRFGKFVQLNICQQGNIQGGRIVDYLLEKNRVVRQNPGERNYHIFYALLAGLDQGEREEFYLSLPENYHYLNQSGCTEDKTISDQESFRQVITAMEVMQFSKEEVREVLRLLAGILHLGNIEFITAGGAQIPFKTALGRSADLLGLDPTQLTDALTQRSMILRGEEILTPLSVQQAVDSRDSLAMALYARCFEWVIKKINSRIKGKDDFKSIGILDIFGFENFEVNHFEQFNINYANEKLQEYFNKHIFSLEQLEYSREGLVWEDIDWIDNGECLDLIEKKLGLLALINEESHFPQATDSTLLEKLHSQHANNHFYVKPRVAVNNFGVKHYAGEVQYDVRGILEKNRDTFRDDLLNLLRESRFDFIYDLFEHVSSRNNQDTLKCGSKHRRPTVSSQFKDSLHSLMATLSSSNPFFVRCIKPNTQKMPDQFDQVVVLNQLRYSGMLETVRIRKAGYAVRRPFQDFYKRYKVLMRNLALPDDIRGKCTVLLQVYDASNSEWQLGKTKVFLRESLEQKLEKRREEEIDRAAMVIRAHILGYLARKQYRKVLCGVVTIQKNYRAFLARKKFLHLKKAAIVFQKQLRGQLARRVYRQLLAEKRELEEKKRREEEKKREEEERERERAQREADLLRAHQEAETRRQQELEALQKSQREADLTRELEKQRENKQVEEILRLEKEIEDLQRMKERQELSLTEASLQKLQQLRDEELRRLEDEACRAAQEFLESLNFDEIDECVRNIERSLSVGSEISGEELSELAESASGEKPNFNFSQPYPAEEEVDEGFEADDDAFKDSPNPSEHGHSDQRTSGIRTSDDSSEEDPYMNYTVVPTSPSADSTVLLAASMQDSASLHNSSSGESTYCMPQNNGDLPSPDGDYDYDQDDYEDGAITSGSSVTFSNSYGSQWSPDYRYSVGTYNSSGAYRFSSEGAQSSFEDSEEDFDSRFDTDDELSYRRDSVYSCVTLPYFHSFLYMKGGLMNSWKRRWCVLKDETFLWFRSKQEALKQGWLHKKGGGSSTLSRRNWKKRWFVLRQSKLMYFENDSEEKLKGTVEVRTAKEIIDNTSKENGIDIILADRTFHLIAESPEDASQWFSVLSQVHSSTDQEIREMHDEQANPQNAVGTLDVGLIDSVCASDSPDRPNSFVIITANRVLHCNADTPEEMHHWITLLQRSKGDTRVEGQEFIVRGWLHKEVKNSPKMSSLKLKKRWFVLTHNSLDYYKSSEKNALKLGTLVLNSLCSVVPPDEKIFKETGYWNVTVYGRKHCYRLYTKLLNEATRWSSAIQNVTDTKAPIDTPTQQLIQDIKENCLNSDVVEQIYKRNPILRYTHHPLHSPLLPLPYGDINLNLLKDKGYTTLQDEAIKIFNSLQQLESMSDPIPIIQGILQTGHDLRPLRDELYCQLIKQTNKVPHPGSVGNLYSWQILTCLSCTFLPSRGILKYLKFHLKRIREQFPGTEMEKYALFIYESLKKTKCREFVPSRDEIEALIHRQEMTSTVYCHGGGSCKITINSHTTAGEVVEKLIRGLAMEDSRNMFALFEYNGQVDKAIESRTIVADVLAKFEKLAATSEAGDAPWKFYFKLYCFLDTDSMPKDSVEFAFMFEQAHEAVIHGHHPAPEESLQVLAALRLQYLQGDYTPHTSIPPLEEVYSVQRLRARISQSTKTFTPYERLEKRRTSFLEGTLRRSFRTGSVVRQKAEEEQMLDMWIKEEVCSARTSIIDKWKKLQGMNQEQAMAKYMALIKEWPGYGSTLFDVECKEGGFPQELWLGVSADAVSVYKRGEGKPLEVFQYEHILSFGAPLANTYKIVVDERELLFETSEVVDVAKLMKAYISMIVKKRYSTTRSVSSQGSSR
row,effect of a mutation on the interaction,Variant
1,disrupting interaction,P772A
2,decreasing interaction,L773A
3,disrupting interaction,Y774A

# Variants of: B1
# Settings: with myo10_bovin MYO10, P79114
# Sequence of myo10_bovin MYO10, P79114 (P79114 whole entry): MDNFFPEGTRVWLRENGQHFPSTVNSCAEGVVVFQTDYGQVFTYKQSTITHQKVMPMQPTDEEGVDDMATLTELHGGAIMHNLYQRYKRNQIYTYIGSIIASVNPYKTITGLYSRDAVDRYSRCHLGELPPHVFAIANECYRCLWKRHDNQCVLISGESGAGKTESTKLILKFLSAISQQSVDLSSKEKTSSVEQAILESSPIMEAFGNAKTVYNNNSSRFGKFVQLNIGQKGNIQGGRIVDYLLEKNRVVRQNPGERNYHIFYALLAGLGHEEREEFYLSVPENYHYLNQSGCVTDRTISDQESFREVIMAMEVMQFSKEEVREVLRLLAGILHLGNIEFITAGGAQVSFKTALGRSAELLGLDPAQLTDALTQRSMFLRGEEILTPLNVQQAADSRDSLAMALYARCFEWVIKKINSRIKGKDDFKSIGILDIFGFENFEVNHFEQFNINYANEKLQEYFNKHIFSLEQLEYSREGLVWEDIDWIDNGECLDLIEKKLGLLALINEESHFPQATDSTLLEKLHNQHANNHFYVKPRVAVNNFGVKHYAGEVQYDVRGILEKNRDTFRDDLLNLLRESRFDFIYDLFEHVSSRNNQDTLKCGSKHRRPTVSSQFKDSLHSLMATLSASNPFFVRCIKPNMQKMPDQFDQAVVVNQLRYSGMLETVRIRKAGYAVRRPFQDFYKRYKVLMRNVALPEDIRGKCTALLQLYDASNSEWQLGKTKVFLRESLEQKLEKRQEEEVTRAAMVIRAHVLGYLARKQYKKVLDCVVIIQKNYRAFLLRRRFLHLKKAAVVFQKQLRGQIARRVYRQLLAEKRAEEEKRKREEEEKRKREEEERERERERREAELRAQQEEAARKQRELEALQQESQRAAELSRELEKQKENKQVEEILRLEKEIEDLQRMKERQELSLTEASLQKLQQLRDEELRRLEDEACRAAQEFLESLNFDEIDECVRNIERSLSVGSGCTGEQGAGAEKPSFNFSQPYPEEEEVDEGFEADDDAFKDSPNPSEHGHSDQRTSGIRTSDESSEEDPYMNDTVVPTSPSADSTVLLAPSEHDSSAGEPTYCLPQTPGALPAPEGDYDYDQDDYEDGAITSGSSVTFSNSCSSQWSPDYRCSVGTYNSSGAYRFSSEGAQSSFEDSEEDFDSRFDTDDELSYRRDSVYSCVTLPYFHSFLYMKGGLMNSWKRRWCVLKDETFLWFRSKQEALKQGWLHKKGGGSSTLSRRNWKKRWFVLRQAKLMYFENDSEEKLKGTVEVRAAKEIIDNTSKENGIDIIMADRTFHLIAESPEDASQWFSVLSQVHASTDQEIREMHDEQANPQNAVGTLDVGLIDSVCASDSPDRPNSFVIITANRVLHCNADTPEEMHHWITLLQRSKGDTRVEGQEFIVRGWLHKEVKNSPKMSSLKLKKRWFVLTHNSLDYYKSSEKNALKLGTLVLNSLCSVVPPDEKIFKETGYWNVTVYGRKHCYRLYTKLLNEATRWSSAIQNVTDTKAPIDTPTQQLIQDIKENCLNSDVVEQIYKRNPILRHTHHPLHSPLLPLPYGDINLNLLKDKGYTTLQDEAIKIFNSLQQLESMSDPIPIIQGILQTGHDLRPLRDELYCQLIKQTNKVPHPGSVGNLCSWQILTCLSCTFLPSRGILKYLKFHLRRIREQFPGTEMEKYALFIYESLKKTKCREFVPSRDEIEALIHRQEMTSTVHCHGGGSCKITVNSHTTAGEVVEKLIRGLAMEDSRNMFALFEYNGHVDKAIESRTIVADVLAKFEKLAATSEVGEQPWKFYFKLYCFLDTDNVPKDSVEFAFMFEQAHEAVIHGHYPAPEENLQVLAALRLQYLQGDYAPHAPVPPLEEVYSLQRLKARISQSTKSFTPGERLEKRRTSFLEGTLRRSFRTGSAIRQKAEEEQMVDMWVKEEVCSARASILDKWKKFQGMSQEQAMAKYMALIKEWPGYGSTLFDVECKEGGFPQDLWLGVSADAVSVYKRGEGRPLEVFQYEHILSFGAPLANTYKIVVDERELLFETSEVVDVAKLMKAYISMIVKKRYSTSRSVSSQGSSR
row,effect of a mutation on the interaction,Variant
1,disrupting interaction,P772A
